From PMC9768791 (2022)

Assays:
Experiment in all cases: activation reporter or marker
[1] = target: T1, CEBPZp.S100F peptide on HLA-A*24:02 (human)
T1 peptide: KYTKAFLV

[2] = target: T2, PDS5Bp.L203V peptide on HLA-A*02:01 (human)
T2 peptide: LLDTVLVNV

[3] = target: T3, SVILp.E1748D peptide on HLA-A*02:01 (human)
T3 peptide: RQFDITSVSV

[4] = target: T4, PPP5Cp.E428K peptide on HLA-A*24:02 (human)
T4 peptide: DYIIRSHKV

[5] = target: T5, VPS13Bp.G2602E peptide on HLA-A*02:01 (human)
T5 peptide: FVNLEQHVV

[6] = target: T6, GPSM2p.D77A peptide on HLA-C*03:03 (human)
T6 peptide: YLHAYAKAL

[7] = target: T7, TENM4p.E1133D peptide on HLA-C*05:01 (human)
T7 peptide: LSDAFVSV

[8] = target: T8, CLSTN1p.L289M peptide on HLA-B*35:01 (human)
T8 peptide: FPNIHMETC

[9] = target: T9, PREPp.G384A peptide on HLA-B*35:01 (human)
T9 peptide: FPLDVGSIVAY

[10] = target: T10, CLSTN1p.L289M peptide on HLA-C*03:03 (human)
T10 peptide: LAVFPNIHM

[11] = target: T11, ICKp.P591T peptide on HLA-C*12:02 (human)
T11 peptide: RTHPGRPFF

[12] = target: T12, ICKp.P591T peptide on HLA-B*39:01 (human)
T12 peptide: MRTHPGRPFF

[13] = target: T13, UGGT2p.L880V peptide on HLA-C*12:02 (human)
T13 peptide: FVGPLDEDF

[14] = target: T14, GALNT2p.L14R peptide on HLA-B*35:01 (human)
T14 peptide: FAFRWVLGIAY

[15] = target: T15, UAP1p.H469Y peptide on HLA-A*02:01 (human)
T15 peptide: ITADVNYNL

[16] = target: T16, MTHFRp.R238H peptide on HLA-B*40:01 (human)
T16 peptide: FEADTFFHFV

[17] = target: T17, STRADAp.M189V peptide on HLA-C*07:01 (human)
T17 peptide: KALDYIHHV

[18] = target: T18, STRADAp.M189V peptide on HLA-A*01:01 (human)
T18 peptide: ALDYIHHVGYV

B1: TCR445 (TCR, V domains shown)
Valpha: AQTVTQSQPEMSVQEAETVTLSCTYDTSESDYYLFWYKQPPSRQMILVIRQEAYKQQNATENRFSVNFQKAAKSFSLKISDSQLGDAAMYFCASSRWGGSEKLVFGKGTKLTVNP
Vbeta: DSGVTQTPKHLITATGQRVTLRCSPRSGDLSVYWYQQSLDQGLQFLIQYYNGEERAKGNILERFSAQQFPDLHSELNLSSLELGDSALYFCASSDSRTGGTDTQYFGPGTRLTVL
Q: Does B1 bind [1]?
A: recognises

B2: TCR447 (TCR, V domains shown)
Valpha: EDQVTQSPEALRLQEGESSSLNCSYTVSGLRGLFWYRQDPGKGPEFLFTLYSAGEEKEKERLKATLTKKESFLHITAPKPEDSATYLCAVHHLNRDDKIIFGKGTRLHILP
Vbeta: DSGVTQTPKHLITATGQRVTLRCSPRSGDLSVYWYQQSLDQGLQFLIQYYNGEERAKGNILERFSAQQFPDLHSELNLSSLELGDSALYFCASSADLGTREQYFGPGTRLTVT
Q: Does B2 bind [2]?
A: recognises

B3: TCR441 (TCR, V domains shown)
Valpha: ILNVEQSPQSLHVQEGDSTNFTCSFPSSNFYALHWYRWETAKSPEALFVMTLNGDEKKKGRISATLNTKEGYSYLYIKGSQPEDSATYLCAPSKYNNNDMRFGAGTRLTVKP
Vbeta: DAGITQSPRHKVTETGTPVTLRCHQTENHRYMYWYRQDPGHGLRLIHYSYGVKDTDKGEVSDGYSVSRSKTEDFLLTLESATSSQTSVYFCAISGTEDGELFFGEGSRLTVL
Q: Does B3 bind [3]?
A: recognises

B4: TCR536 (TCR, V domains shown)
Valpha: AQSVAQPEDQVNVAEGNPLTVKCTYSVSGNPYLFWYVQYPNRGLQFLLKYITGDNLVKGSYGFEAEFNKSQTSFHLKKPSALVSDSALYFCAVSPLTSGTYKYIFGTGTRLKVLA
Vbeta: SQTIHQWPATLVQPVGSPLSLECTVEGTSNPNLYWYRQAAGRGLQLLFYSVGIGQISSEVPQNLSASRPQDRQFILSSKKLLLSDSGFYLCAWSEGDETQYFGPGTRLLVL
Q: Does B4 bind [4]?
A: recognises

B5: TCR535 (TCR, V domains shown)
Valpha: AQKVTQAQTEISVVEKEDVTLDCVYETRDTTYYLFWYKQPPSGELVFLIRRNSFDEQNEISGRYSWNFQKSTSSFNFTITASQVVDSAVYFCALSTSMDSNYQLIWGAGTKLIIKP
Vbeta: EPEVTQTPSHQVTQMGQEVILRCVPISNHLYFYWYRQILGQKVEFLVSFYNNEISEKSEIFDDQFSVERPDGSNFTLKIRSTKLEDSAMYFCASSCWDRSTDTQYFGPGTRLTVL
Q: Does B5 bind [5]?
A: recognises

B6: TCR538 (TCR, V domains shown)
Valpha: ILNVEQSPQSLHVQEGDSTNFTCSFPSSNFYALHWYRWETAKSPEALFVMTLNGDEKKKGRISATLNTKEGYSYLYIKGSQPEDSATYLCAFDNYGQNFVFGPGTRLSVLP
Vbeta: DVKVTQSSRYLVKRTGEKVFLECVQDMDHENMFWYRQDPGLGLRLIYFSYDVKMKEKGDIPEGYSVSREKKERFSLILESASTNQTSMYLCASSLTGSFNEQFFGPGTRLTVL
Q: Does B6 bind [6]?
A: recognises

B7: TCR707 (TCR, V domains shown)
Valpha: QKEVEQNSGPLSVPEGAIASLNCTYSDRGSQSFFWYRQYSGKSPELIMSIYSNGDKEDGRFTAQLNKASQYVSLLIRDSQPSDSATYLCAVNVFNKFYFGSGTKLNVKP
Vbeta: DAGVIQSPRHEVTEMGQEVTLRCKPISGHDYLFWYRQTMMRGLELLIYFNNNVPIDDSGMPEDRFSAKMPNASFSTLKIQPSEPRDSAVYFCASSFLITDTQYFGPGTRLTVL
Q: Does B7 bind [7]?
A: recognises

B8: TCR691 (TCR, V domains shown)
Valpha: GQSLEQPSEVTAVEGAIVQINCTYQTSGFYGLSWYQQHDGGAPTFLSYNALDGLEETGRFSSFLSRSDSYGYLLLQELQMKDSASYFCAVQAGTALIFGKGTTLSVSS
Vbeta: DTEVTQTPKHLVMGMTNKKSLKCEQHMGHRAMYWYKQKAKKPPELMFVYSYEKLSINESVPSRFSPECPNSSLLNLHLHALQPEDSALYLCASSQPGGGNTEAFFGQGTRLTVV
Q: Does B8 bind [8]?
A: recognises

B9: TCR692 (TCR, V domains shown)
Valpha: GEDVEQSLFLSVREGDSSVINCTYTDSSSTYLYWYKQEPGAGLQLLTYIFSNMDMKQDQRLTVLLNKKDKHLSLRIADTQTGDSAIYFCAERNGGATNKLIFGTGTLLAVQP
Vbeta: DTEVTQTPKHLVMGMTNKKSLKCEQHMGHRAMYWYKQKAKKPPELMFVYSYEKLSINESVPSRFSPECPNSSLLNLHLHALQPEDSALYLCASSQDRTGAYSPLHFGNGTRLTVT
Q: Does B9 bind [9]?
A: recognises

B10: TCR696 (TCR, V domains shown)
Valpha: AQSVTQLDSHVSVSEGTPVLLRCNYSSSYSPSLFWYVQHPNKGLQLLLKYTSAATLVKGINGFEAEFKKSETSFHLTKPSAHMSDAAEYFCVVSAPDTGRRALTFGSGTRLQVQP
Vbeta: GAGVSQSPSNKVTEKGKDVELRCDPISGHTALYWYRQSLGQGLEFLIYFQGNSAPDKSGLPSDRFSAERTGGSVSTLTIQRTQQEDSAVYLCASSSGQGFTDTQYFGPGTRLTVL
Q: Does B10 bind [10]?
A: recognises

B11: TCR689 (TCR, V domains shown)
Valpha: GIQVEQSPPDLILQEGANSTLRCNFSDSVNNLQWFHQNPWGQLINLFYIPSGTKQNGRLSATTVATERYSLLYISSSQTTDSGVYFCAVVLSYNTDKLIFGTGTRLQVFP
Vbeta: DVKVTQSSRYLVKRTGEKVFLECVQDMDHENMFWYRQDPGLGLRLIYFSYDVKMKEKGDIPEGYSVSREKKERFSLILESASTNQTSMYLCASSLSPPGYLETQYFGPGTRLLVL
Q: Does B11 bind [11]?
A: recognises

B12: TCR687 (TCR, V domains shown)
Valpha: AQSVTQLGSHVSVSEGALVLLRCNYSSSVPPYLFWYVQYPNQGLQLLLKYTSAATLVKGINGFEAEFKKSETSFHLTKPSAHMSDAAEYFCAVTDSNYQLIWGAGTKLIIKP
Vbeta: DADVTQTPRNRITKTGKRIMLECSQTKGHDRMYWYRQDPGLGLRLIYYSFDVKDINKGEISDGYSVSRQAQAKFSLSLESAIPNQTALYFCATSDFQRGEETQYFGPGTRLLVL
Q: Does B12 bind [12]?
A: recognises

B13: TCR682 (TCR, V domains shown)
Valpha: AQSVTQPDIHITVSEGASLELRCNYSYGATPYLFWYVQSPGQGLQLLLKYFSGDTLVQGIKGFEAEFKRSQSSFNLRKPSVHWSDAAEYFCAVAPDNYGQNFVFGPGTRLSVLP
Vbeta: DAMVIQNPRYQVTQFGKPVTLSCSQTLNHNVMYWYQQKSSQAPKLLFHYYDKDFNNEADTPDNFQSRRPNTSFCFLDIRSPGLGDAAMYLCATYSSGANVLTFGAGSRLTVL
Q: Does B13 bind [13]?
A: recognises

B14: TCR802 (TCR, V domains shown)
Valpha: AQSVSQHNHHVILSEAASLELGCNYSYGGTVNLFWYVQYPGQHLQLLLKYFSGDPLVKGIKGFEAEFIKSKFSFNLRKPSVQWSDTAEYFCAVNLLTDSWGKFQFGAGTQVVVTP
Vbeta: EPEVTQTPSHQVTQMGQEVILRCVPISNHLYFYWYRQILGQKVEFLVSFYNNEISEKSEIFDDQFSVERPDGSNFTLKIRSTKLEDSAMYFCATMGSGGNEQFFGPGTRLTVL
Q: Does B14 bind [14]?
A: recognises

B15: TCR798 (TCR, V domains shown)
Valpha: AQSVTQLDSQVPVFEEAPVELRCNYSSSVSVYLFWYVQYPNQGLQLLLKYLSGSTLVKGINGFEAEFNKSQTSFHLRKPSVHISDTAEYFCAVSYSGSARQLTFGSGTQLTVLP
Vbeta: DAGVIQSPRHEVTEMGQEVTLRCKPISGHNSLFWYRQTMMRGLELLIYFNNNVPIDDSGMPEDRFSAKMPNASFSTLKIQPSEPRDSAVYFCASNPGGRGEKLFFGSGTQLSVL
Q: Does B15 bind [15]?
A: recognises

B16: TCR814 (TCR, V domains shown)
Valpha: TQLLEQSPQFLSIQEGENLTVYCNSSSVFSSLQWYRQEPGEGPVLLVTVVTGGEVKKLKRLTFQFGDARKDSSLHITAAQPGDTGLYLCAGLLGDSGAGSYQLTFGKGTKLSVIP
Vbeta: DAGITQSPRHKVTETGTPVTLRCHQTENHRYMYWYRQDPGHGLRLIHYSYGVKDTDKGEVSDGYSVSRSKTEDFLLTLESATSSQTSVYFCAISESWMSSYNEQFFGPGTRLTVL
Q: Does B16 bind [16]?
A: recognises

B17: TCR827 (TCR, V domains shown)
Valpha: GQQVMQIPQYQHVQEGEDFTTYCNSSTTLSNIQWYKQRPGGHPVFLIQLVKSGEVKKQKRLTFQFGEAKKNSSLHITATQTTDVGTYFCAAPDAGGTSYGKLTFGQGTILTVHP
Vbeta: NAGVTQTPKFQVLKTGQSMTLQCAQDMNHEYMSWYRQDPGMGLRLIHYSVGAGITDQGEVPNGYNVSRSTTEDFPLRLLSAAPSQTSVYFCASSPLNPYNEQFFGPGTRLTVL
Q: Does B17 bind [17]?
A: recognises

B18: TCR829 (TCR, V domains shown)
Valpha: QKEVEQDPGPLSVPEGAIVSLNCTYSNSAFQYFMWYRQYSRKGPELLMYTYSSGNKEDGRFTAQVDKSSKYISLFIRDSQPSDSATYLCAMSPTYSGAGSYQLTFGKGTKLSVIP
Vbeta: GAVVSQHPSWVICKSGTSVKIECRSLDFQATTMFWYRQFPKQSLMLMATSNEGSKATYEQGVEKDKFLINHASLTLSTLTVTSAHPEDSSFYICSASLLGEGYEQYFGPGTRLTVT
Q: Does B18 bind [18]?
A: recognises
